Experiments:
[1] = target: T1, SSB (Bacillus subtilis, UniProt P37455 1-172); experiment: pull-down on ssDNA magnetic beads; 50 pmol oligo, 80 pmol SSB; 20 mM Tris-HCl pH 7.5, 200 mM NaCl, 20 °C, 800 rpm; beads washed in same buffer; conditions: protein: recombinant; chain copies: 4; label: 5' biotin, on streptavidin magnetic beads; single strand
T1 sequence: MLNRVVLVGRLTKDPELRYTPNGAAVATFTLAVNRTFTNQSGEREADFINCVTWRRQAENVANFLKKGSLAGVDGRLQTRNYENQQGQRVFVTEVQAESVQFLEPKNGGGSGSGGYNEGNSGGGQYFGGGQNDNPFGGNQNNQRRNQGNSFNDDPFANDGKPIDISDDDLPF

[2] = target: T2, SSBΔ35 (Bacillus subtilis, UniProt P37455 1-137); experiment: pull-down on ssDNA magnetic beads; 20 mM Tris-HCl pH 7.5, 200 mM NaCl, 20 °C, 800 rpm; beads washed in same buffer; conditions: protein: recombinant; chain copies: 4; label: 5' biotin, on streptavidin magnetic beads; single strand
T2 sequence: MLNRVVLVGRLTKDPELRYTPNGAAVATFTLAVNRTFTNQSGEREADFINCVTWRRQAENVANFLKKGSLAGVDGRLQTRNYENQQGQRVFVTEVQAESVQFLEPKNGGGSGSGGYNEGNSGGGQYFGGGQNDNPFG

[3] = target: T3, SSBΔ6 (Bacillus subtilis, UniProt P37455 1-166); experiment: pull-down on ssDNA magnetic beads; 50 pmol oligo, 80 pmol SSBΔ6; 20 mM Tris-HCl pH 7.5, 200 mM NaCl, 20 °C, 800 rpm; beads washed in same buffer; conditions: protein: recombinant; chain copies: 4; label: 5' biotin, on streptavidin magnetic beads; single strand
T3 sequence: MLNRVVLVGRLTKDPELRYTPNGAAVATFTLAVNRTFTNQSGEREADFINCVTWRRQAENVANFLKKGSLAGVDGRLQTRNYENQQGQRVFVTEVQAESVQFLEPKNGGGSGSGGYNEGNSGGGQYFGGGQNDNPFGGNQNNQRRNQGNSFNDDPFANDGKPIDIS

[4] = target: T4, RecS, purified (Bacillus subtilis, UniProt P50729 1-496); experiment: SEC; purified RecS (4 µM) or YpbB/RecS (4 µM) mixed on ice with SSB (16 µM or 40 µM, as monomers) and loaded onto a gel-filtration column; fractions on SDS-PAGE, Coomassie; conditions: both partners purified
T4 construct: RecS (also annotated YpbC), RecQ paralogue of Bacillus subtilis; theoretical mass 57 kDa; also called YpbC; source: E. coli, purified (procedure in Text S1)
T4 sequence (looked up): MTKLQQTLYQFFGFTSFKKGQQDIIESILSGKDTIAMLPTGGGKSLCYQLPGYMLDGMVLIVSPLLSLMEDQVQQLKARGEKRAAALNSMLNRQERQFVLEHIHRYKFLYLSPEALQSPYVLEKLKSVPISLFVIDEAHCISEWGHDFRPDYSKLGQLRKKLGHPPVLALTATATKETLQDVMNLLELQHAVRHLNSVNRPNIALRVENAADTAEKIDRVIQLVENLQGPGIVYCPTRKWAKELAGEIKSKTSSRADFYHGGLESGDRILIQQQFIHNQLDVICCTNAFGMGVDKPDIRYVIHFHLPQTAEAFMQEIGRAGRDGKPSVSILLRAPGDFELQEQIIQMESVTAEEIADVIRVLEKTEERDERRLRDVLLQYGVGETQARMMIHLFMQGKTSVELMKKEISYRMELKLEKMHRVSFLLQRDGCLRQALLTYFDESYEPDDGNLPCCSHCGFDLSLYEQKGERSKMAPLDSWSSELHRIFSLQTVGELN

[5] = target: T5, YpbB/RecS complex, purified (Bacillus subtilis, UniProt P50728 1-352; P50729 1-496); experiment: as above; conditions: both partners purified
T5 construct: YpbB of Bacillus subtilis; RecS (YpbC) of Bacillus subtilis; Equivalent amounts of YpbB and RecS appear to be present in the complex
T5 sequence (looked up) 1: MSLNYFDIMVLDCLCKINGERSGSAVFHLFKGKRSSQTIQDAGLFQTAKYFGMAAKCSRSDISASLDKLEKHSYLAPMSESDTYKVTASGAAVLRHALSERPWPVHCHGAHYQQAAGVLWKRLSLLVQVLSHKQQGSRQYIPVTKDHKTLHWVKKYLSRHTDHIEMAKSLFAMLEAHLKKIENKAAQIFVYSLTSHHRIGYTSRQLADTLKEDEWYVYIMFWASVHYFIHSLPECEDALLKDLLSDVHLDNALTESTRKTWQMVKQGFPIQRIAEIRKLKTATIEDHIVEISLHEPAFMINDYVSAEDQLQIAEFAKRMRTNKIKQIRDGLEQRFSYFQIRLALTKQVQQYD
T5 sequence (looked up) 2: T4 sequence (looked up)

[6] = target: T6, RecG, purified (Bacillus subtilis, UniProt O34942 1-682); experiment: pull-down; streptavidin magnetic beads with a biotinylated 65-mer ssDNA coated by purified SSB or SSBΔ6 (80 pmol of tetramer; SSBΔ35: 100 pmol of tetramer, 60 pmol of tested protein); purified protein added in 20 mM Tris-HCl pH 7.5, 200 mM NaCl, 30 min, 20°C; SDS-PAGE, Coomassie; conditions: both partners purified
T6 construct: RecG DNA helicase of Bacillus subtilis; source: E. coli, purified (procedure in Text S1)
T6 sequence (looked up): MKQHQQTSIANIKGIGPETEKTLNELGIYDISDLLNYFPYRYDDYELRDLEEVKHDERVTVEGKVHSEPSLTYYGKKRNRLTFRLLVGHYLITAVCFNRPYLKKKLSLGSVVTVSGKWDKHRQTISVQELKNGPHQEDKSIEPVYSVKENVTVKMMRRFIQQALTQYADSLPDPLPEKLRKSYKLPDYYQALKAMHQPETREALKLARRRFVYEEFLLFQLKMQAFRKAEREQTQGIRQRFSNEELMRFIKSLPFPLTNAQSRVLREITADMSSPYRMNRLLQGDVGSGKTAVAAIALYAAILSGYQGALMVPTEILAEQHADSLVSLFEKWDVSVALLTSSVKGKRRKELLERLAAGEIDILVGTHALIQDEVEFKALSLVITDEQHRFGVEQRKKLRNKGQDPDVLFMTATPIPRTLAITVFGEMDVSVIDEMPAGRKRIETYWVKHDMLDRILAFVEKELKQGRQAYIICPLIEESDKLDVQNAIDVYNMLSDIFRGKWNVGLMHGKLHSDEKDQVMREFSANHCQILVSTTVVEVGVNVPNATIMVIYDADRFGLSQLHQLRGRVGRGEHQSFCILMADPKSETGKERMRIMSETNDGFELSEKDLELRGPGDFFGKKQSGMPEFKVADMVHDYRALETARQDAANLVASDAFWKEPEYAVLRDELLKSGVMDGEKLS

[7] = target: T7, RecO, purified (Bacillus subtilis, UniProt P42095 1-255); experiment: as above; conditions: both partners purified
T7 construct: RecO recombination mediator protein of Bacillus subtilis; source: E. coli, purified (procedure in Text S1)
T7 sequence (looked up): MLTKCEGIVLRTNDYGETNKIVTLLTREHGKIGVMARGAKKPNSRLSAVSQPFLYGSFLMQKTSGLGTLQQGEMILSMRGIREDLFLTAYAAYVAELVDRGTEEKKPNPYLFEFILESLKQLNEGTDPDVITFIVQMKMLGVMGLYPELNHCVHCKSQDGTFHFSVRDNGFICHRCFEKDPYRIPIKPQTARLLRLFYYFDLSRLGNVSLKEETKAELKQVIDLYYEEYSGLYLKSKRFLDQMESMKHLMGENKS

[8] = target: T8, PriA, purified (Bacillus subtilis, UniProt P94461 1-805); experiment: as above; conditions: both partners purified
T8 construct: PriA, primary replication restart protein (DNA helicase) of Bacillus subtilis; source: E. coli, purified (procedure in Text S1)
T8 sequence (looked up): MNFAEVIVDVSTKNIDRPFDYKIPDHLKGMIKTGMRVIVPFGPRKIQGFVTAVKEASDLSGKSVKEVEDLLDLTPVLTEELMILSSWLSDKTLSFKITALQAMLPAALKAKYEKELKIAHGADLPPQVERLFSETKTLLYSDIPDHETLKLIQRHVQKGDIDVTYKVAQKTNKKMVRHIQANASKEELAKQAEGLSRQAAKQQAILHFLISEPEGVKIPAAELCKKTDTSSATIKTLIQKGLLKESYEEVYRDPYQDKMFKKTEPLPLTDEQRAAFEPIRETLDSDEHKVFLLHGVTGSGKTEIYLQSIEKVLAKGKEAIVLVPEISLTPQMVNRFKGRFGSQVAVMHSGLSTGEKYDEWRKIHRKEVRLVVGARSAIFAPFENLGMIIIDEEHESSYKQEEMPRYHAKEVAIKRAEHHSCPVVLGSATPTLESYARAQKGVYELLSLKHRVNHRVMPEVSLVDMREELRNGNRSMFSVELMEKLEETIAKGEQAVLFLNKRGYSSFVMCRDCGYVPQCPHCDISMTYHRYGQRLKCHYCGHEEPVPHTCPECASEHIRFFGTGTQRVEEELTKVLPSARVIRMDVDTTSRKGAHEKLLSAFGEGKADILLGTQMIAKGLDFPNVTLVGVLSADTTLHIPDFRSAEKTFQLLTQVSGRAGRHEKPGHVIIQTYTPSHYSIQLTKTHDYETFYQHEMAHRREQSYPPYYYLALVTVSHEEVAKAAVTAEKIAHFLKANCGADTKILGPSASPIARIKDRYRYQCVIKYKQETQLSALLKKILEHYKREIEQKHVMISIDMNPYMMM

[9] = target: T9, RecQ, purified (Bacillus subtilis, UniProt O34748 1-591); experiment: as above; conditions: both partners purified
T9 construct: RecQ DNA helicase (initially annotated YocI) of Bacillus subtilis; also called YocI; source: E. coli, purified (procedure in Text S1)
T9 sequence (looked up): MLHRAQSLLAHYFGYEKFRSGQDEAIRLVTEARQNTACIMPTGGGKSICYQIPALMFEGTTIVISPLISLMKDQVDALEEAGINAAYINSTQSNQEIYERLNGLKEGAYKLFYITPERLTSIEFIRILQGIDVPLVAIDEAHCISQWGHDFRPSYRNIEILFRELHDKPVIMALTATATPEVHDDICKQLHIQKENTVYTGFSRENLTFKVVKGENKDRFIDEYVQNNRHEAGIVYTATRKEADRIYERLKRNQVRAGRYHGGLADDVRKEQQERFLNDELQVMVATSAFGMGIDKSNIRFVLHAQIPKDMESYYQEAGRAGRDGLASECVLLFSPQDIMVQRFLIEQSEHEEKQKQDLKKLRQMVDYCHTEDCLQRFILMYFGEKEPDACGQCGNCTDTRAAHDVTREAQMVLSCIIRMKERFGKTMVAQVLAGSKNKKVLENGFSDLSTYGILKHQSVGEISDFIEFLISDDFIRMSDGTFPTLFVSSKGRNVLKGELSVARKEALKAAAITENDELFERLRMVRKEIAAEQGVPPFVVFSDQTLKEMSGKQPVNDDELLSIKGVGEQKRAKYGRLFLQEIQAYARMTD

Measured: binding result

B1: 65-mer biotinylated ssDNA oligonucleotide (ssDNA)
DNA: CGTCGTTTTACAACGTCGTGACTGGGAAAACCCTGGCGTTACCCAACTTAATCGCCTTGCAGCA
modifications: biotin-TEG
binds: [1] | [2] | [3]

B2: YpbB, produced in E. coli with RecS (natural protein, Bacillus subtilis, UniProt P50728 1-352, looked up)
chain: T5 sequence (looked up) 1
notes: YpbB, protein of unknown function of Bacillus subtilis, encoded immediately upstream of recS; Could not be prepared as a soluble protein alone; source: E. coli, purified only as a complex with RecS (procedure in Text S1)
binds: [4]

B3: Bacillus subtilis Single-Stranded DNA Binding protein (SSB), purified (natural protein, UniProt P37455 1-172, looked up)
chain: T1 sequence
notes: Used as a tetramer; source: E. coli, purified (procedure in Text S1)
binds: [5] | [6] | [7] | [8] | [9]

— PMC3000357 (PLoS Genetics, 2010)
